# Laboratory results published in paper PMC7738311.
# Molecular target: His-tagged MafAI (MafAI.1 of N. meningitidis BB-1, from plasmid pEN-mafAI-H) (Neisseria meningitidis strain BB-1)
# Test: semi-native SDS-PAGE with Western blot (heat modifiability); cell envelopes of BB-1, samples heated at 95°C or not before electrophoresis; sample buffer with 0.2% SDS and no β-mercaptoethanol, run on ice; detected with anti-His-tag antibodies (MafAI) or anti-MafAII antiserum
substance,measurement,value
"His-tagged MafAI (MafAI.1 of N. meningitidis BB-1, from plasmid pEN-mafAI-H) (natural protein)",stoichiometry N,8 subunits
